To fix the notation:
B6: BMP5 (ligand, human, UniProt P22003 317-454, looked up)
chain: AANKRKNQNRNKSSSHQDSSRMSSVGDYNTSEQKQACKKHELYVSFRDLGWQDWIIAPEGYAAFYCDGECSFPLNAHMNATNHAIVQTLVHLMFPDHVPKPCCAPTKLNAISVLYFDDSSNVILKKYRNMVVRSCGCH

The target in one assay is T1, hENG(26-586) (human, UniProt P17813 26-586).
T1 construct: Bought protein, a human variant with no Fc domain; also called R&D Systems, catalog #1097-EN
T1 sequence: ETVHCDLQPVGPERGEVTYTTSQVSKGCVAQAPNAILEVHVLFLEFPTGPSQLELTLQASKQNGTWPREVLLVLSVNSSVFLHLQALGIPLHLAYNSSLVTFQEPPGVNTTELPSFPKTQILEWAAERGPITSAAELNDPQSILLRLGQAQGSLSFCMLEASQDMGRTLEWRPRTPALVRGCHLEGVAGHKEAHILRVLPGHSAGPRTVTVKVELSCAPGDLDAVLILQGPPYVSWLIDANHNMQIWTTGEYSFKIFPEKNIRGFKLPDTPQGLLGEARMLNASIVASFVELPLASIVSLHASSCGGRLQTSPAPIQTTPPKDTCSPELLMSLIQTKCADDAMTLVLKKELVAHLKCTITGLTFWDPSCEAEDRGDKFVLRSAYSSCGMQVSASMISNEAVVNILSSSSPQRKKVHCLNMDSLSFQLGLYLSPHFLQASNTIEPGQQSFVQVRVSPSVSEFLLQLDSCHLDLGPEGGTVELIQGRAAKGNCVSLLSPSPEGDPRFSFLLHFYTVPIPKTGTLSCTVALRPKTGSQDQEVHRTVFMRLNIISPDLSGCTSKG
The assay can be described thus: SPR (Biacore), immobilized hENG(26-586), soluble ligand; '-' = binding undetectable. The text has this:
Considered a co-receptor, ENG is widely thought to function by facilitating the binding of TGF-β1 and -3 to multi-protein complexes of type I and type II receptors. To investigate the possibility of direct ligand binding by isolated ENG, surface plasmon resonance (SPR) methodology (Biacore™ instrument) was used to screen for binding of captured proteins comprising the full-length extracellular domain of ENG to a variety of soluble human TGF-β family ligands.

The target in another assay is T2, hENG(26-437)-hFc (human, UniProt P17813 26-437).
T2 construct: HEK 293, purified; not shown: linker and human IgG1 Fc domain
T2 sequence: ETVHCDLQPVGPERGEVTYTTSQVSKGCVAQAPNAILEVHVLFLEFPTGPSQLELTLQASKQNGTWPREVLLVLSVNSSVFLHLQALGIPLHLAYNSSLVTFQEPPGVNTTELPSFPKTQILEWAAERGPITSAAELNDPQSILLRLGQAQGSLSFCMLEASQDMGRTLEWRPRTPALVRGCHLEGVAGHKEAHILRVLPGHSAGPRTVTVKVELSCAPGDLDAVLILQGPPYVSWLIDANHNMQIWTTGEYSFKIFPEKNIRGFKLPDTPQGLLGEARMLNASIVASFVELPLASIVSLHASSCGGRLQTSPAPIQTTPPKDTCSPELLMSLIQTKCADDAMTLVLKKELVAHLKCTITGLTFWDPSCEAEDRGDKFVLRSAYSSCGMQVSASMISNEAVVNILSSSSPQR
The assay can be described thus: SPR ligand screen; '-' = Binding undetectable.

The assay “BMP5” deals with B6. Kind of assay: SPR (Biacore), ligand amine-coupled to CM5 chip, Fc fusion injected. In general terms: Surface plasmon resonance follows binding to a sensor surface in real time, without labels.
Assay [1] deals with T3, BMP10 (human, UniProt O95393 317-424).
T3 construct: also called hBMP-10; hBMP10
T3 sequence: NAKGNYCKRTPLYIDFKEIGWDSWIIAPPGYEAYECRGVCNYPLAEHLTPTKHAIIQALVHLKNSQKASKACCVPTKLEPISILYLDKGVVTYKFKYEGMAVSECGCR
The assay can be described thus: SPR, captured hENG-hFc, soluble BMP10; '-' = Binding undetectable. Here is the method: (§1) SPR methodology was used to screen these hENG-hFc protein variants for high-affinity binding to human BMP9 and BMP10. In these experiments, captured hENG-hFc proteins were exposed to soluble BMP9 or BMP10 at 100 nM each.

The target of assay [2] is T4, BMP9 (human, UniProt Q9UK05 320-429).
T4 construct: also called hBMP-9; hBMP9
T4 sequence (looked up): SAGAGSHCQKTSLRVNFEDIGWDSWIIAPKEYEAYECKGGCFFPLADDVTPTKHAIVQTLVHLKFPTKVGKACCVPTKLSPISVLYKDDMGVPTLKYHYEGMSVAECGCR
The assay can be described thus: SPR, captured hENG-hFc, soluble BMP9; '-' = Binding undetectable. The protocol: as §1

A further assay addresses T5, BMP10pro(22-312)-mFc (human, UniProt O95393 22-312).
T5 construct: also called mouse Fc equivalent construct; not shown: optional linker and mouse immunoglobulin G1 Fc domain
T5 sequence: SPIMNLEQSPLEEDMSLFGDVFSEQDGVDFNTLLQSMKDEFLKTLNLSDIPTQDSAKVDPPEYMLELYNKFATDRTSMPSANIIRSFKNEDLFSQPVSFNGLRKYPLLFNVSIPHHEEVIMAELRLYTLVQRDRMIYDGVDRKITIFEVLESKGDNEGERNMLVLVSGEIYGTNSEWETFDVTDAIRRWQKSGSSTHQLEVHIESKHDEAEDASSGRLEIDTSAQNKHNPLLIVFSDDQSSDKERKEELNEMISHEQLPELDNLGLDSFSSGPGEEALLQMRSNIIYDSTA
The assay can be described thus: SPR (Biacore), BMP10pro-Fc captured by anti-Fc antibody, ligand injected. The protocol:
(§2) The BMP10pro-Fc proteins were separately was captured onto the system using an anti-Fc antibody, and ligands were injected and allowed to flow over the captured receptor protein. […] The mouse Fc equivalent constructs behaved similarly. […] The affinity of BMP10pro(22-315)-hFc for BMP3b was not assessed.

A further assay addresses T6, BMP10pro(22-315)-mFc (human, UniProt O95393 22-315).
T6 construct: also called mouse Fc equivalent construct; not shown: optional linker and mouse immunoglobulin G1 Fc domain
T6 sequence: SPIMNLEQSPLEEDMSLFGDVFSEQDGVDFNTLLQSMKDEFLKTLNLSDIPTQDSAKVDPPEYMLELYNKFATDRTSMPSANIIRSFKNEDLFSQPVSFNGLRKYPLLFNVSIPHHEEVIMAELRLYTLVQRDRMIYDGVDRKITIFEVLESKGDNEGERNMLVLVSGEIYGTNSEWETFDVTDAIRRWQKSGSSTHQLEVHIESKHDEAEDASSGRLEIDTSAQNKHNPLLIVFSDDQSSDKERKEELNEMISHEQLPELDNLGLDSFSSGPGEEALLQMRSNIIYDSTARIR
The assay is described as above. Here is the method:
as §2

In assay [3] the target is T4, BMP9. Kind of assay: SPR (Biacore), ligand amine-coupled to CM5 chip, Fc fusion injected.
The target of another assay is T7, BMP6 (human, UniProt P22004 382-513, limits assumed).
T7 sequence (looked up): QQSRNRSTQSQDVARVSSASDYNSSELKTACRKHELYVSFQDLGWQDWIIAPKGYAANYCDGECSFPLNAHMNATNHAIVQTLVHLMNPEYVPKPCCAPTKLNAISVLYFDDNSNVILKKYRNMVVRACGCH
The assay is described as above.

For assay [4], the target named is T3, BMP10. The assay is described as above.

B1: TGF-β2 (ligand, human, UniProt P61812 303-414, looked up)
chain: ALDAAYCFRNVQDNCCLRPLYIDFKRDLGWKWIHEPKGYNANFCAGACPYLWSSDTQHSRVLSLYNTINPEASASPCCVSQDLEPLTILYYIGKTPKIEQLSNMIVKSCKCS
notes: also called hTGF-β2
With B1, the binding result in the assay with hENG(26-586) is given as “no binding (tested: 25 nM)”; with hENG(26-437)-hFc it was “no binding (tested: 100 nM)”.

B2: ActRIIB-mFc (Fc fusion, not shown: a dimerising Fc or GST)
chain: GRGEAETRECIYYNANWELERTNQSGLERCEGEQDKRLHCYASWRNSSGTIELVKKGCWLDDFNCYDRQECVATEENPQVYFCCCEGNFCNERFTHLPEAGGPEVTYEPPPTAPT
In the case of B2, the binding result with BMP5 is given as “binds”.

B3: hENG(258-346)-hFc (Fc fusion)
chain: YVSWLIDANHNMQIWTTGEYSFKIFPEKNIRGFKLPDTPQGLLGEARMLNASIVASFVELPLASIVSLHASSCGGRLQTSPAPIQTTPP
notes: HEK 293, purified; not shown: linker and human IgG1 Fc domain
Regarding B3, the binding result with BMP10 [1] and in the assay with BMP9 [2] was “no binding (tested: 100 nM)” in each case.

B4: BMP2 (ligand, human, UniProt P12643 283-396, looked up)
chain: QAKHKQRKRLKSSCKRHPLYVDFSDVGWNDWIVAPPGYHAFYCHGECPFPLADHLNSTNHAIVQTLVNSVNSKIPKACCVPTELSAISMLYLDENEKVVLKNYQDMVVEGCGCR
notes: also called hBMP-2
On to B4, for which the binding result with hENG(26-586) is listed as “no binding (tested: 25 nM)”; with hENG(26-437)-hFc it was “no binding (tested: 100 nM)”.

B5: hBMP-2/7 (ligand, human)
chain 1: QAKHKQRKRLKSSCKRHPLYVDFSDVGWNDWIVAPPGYHAFYCHGECPFPLADHLNSTNHAIVQTLVNSVNSKIPKACCVPTELSAISMLYLDENEKVVLKNYQDMVVEGCGCR
chain 2: STGSKQRSQNRSKTPKNQEALRMANVAENSSSDQRQACKKHELYVSFRDLGWQDWIIAPEGYAAYYCEGECAFPLNSYMNATNHAIVQTLVHFINPETVPKPCCAPTQLNAISVLYFDDSSNVILKKYRNMVVRACGCH
In the case of B5, the binding result with hENG(26-586) is “no binding (tested: 25 nM)”; in the assay with hENG(26-437)-hFc it was “no binding (tested: 100 nM)”.

For B6, the binding result in the assay with BMP10pro(22-312)-mFc and in the assay with BMP10pro(22-315)-mFc was “binds” throughout.

B7: BMP7 (ligand, human, UniProt P18075 293-431, looked up)
chain: STGSKQRSQNRSKTPKNQEALRMANVAENSSSDQRQACKKHELYVSFRDLGWQDWIIAPEGYAAYYCEGECAFPLNSYMNATNHAIVQTLVHFINPETVPKPCCAPTQLNAISVLYFDDSSNVILKKYRNMVVRACGCH
notes: also called hBMP-7
In the case of B7, the binding result in the assay with hENG(26-586) was “no binding (tested: 25 nM)”; with hENG(26-437)-hFc it was “no binding (tested: 100 nM)”.

B8: hENG(360-457)-hFc (Fc fusion)
chain: QTKCADDAMTLVLKKELVAHLKCTITGLTFWDPSCEAEDRGDKFVLRSAYSSCGMQVSASMISNEAVVNILSSSSPQRKKVHCLNMDSLSFQLGLYLS
notes: Expressed in COS cells, not purified; not shown: linker and human IgG1 Fc domain
In the case of B8, the binding result with BMP10 [1] and with BMP9 [2] was “no binding (tested: 100 nM)” each time.

B9: ActRIIB-hFc (Fc fusion)
chain: GRGEAETRECIYYNANWELERTNQSGLERCEGEQDKRLHCYASWRNSSGTIELVKKGCWLDDFNCYDRQECVATEENPQVYFCCCEGNFCNERFTHLPEAGGPEVTYEPPPTAPTGGGTHTCPPCPAPELLGGPSVFLFPPKPKDTLMISRTPEVTCVVVDVSHEDPEVKFNWYVDGVEVHNAKTKPREEQYNSTYRVVSVLTVLHQDWLNGKEYKCKVSNKALPVPIEKTISKAKGQPREPQVYTLPPSREEMTKNQVSLTCLVKGFYPSDIAVEWESNGQPENNYKTTPPVLDSDGSFFLYSKLTVDKSRWQQGNVFSCSVMHEALHNHYTQKSLSLSPGK
notes: Extracellular domain of human ActRIIB, linker, human Fc
Usually Kd stands for the constant that tells how readily two partners part at equilibrium. Read a low Kd as higher affinity. B9: the Kd in the assay with BMP9 [3] came to 0.0335 nM; with BMP5 it was 2.92 nM; with BMP6, 0.164 nM; in the assay with BMP10 [4], 0.0173 nM.

B10: TGF-β3 (ligand, human, UniProt P10600 301-412, looked up)
chain: ALDTNYCFRNLEENCCVRPLYIDFRQDLGWKWVHEPKGYYANFCSGPCPYLRSADTTHSTVLGLYNTLNPEASASPCCVPQDLEPLTILYYVGRTPKVEQLSNMVVKSCKCS
notes: also called hTGF-β3
Take B10: the binding result with hENG(26-586) was “no binding (tested: 25 nM)”; with hENG(26-437)-hFc, “no binding (tested: 50 nM)”.

B11: activin A (ligand, human, UniProt P08476 311-426, looked up)
chain: GLECDGKVNICCKKQFFVSFKDIGWNDWIIAPSGYHANYCEGECPSHIAGTSGSSLSFHSTVINHYRMRGHSPFANLKSCCVPTKLRPMSMLYYDDGQNIIKKDIQNMIVEECGCS
notes: also called hActivin A
With B11, the binding result with hENG(26-586) is listed as “no binding (tested: 25 nM)”; in the assay with hENG(26-437)-hFc, “no binding (tested: 100 nM)”.

B12: hENG(360-437)-hFc (Fc fusion)
chain: QTKCADDAMTLVLKKELVAHLKCTITGLTFWDPSCEAEDRGDKFVLRSAYSSCGMQVSASMISNEAVVNILSSSSPQR
notes: as for B8
As for B12, the binding result with BMP10 [1] and in the assay with BMP9 [2] was “no binding (tested: 100 nM)” in each case.

Source of the values: patent US20200087367A1 (ACCELERON PHARMA, published 2020).
